Here are results for one molecule from US20090325867A1, “RECEPTOR-SPECIFIC TUMOUR NECROSIS FACTOR-RELATED APOPTOSIS-INDUCING LIGAND (TRAIL) VARIANTS” (MEDICAL RESEARCH COUNCIL, priority 2005, published 2009).

One experiment addresses T1, TRAIL-R1 (DR4) (Homo sapiens, UniProt O00220).
T1 construct: Ramos and Jurkat cells, which signal predominantly through TRAIL-R1 and TRAIL-R2, respectively; endogenous in cells; host or cells: Ramos cells (Jurkat cells as TRAIL-R2 comparison)
As to the kind of experiment: TRAIL-R1 selective apoptotic signalling (Ramos versus Jurkat cells). Format: cell-based. The conditions noted are these: from apoptosis in Ramos (TRAIL-R1) and Jurkat (TRAIL-R2) cells. The source says: Another test involves the assay of the effect in R1- (DR4-) only cells. This is the preferred test for DR4 selectivity as discussed herein. Preferably the ligand is applied to an R1-only signalling cell. Preferably the cell is a Ramos cell. Preferably the read-out is functional activity, preferably death-inducing activity (apoptosis). This is crucial to the test—mere binding is not as robust an indicator as functional induction of death. Thus, preferably a DR4 selective ligand according to the present invention induces death in a DR4 only signalling cell, such as a Ramos cell.
Ramos, an Epstein-Barr virus-negative Burkitt's lymphoma cell line, and Jurkat T cells (clone E6-1) were cultured as described (MacFarlane et al (2005 Cell Death and Differentiation vol 12 pages 773-782)). Blood samples were obtained from CLL patients, with patient consent and local ethical committee approval and CLL cells purified as described (MacFarlane et al (2002 Oncogene 21, 6809-6818). Cells were incubated for 16 h with depsipeptide (10 nM), provided by Dr. E. Sausville (NCI, USA). Cells were then cultured for a further 6 h with either HGSETR1 or HGS-ETR2, agonistic mAbs to TRAIL-R1 or -R2, respectively (Human Genome Sciences, Rockville, Md.), His-TRAIL-LE (a recombinant TRAIL with low endotoxin—Alexis Corporation, Nottingham, UK), His-TRAIL, a similar form of human recombinant TRAIL (MacFarlane et al (1997 J Biol Chem 272, 25417-25420)) but not further purified to reduce endotoxin levels or a mutant form of His-TRAIL as described (MacFarlane et al., 2005 ibid.). Cell lines were also pre-incubated for 30 min with a TRAIL-R1 blocking Ab and a TRAIL-R2 neutralizing Ab from Alexis and R&D systems, respectively, prior to exposure to TRAIL. Freshly isolated cells from patients with MCL were isolated, purified and incubated with different forms of TRAIL as described above for CLL cells. Samples were either analyzed immediately for apoptosis or stored at −80° C. for subsequent Western blotting. Other methods and reagents were as described (Inoue (2004 Cell Death Differ 11 Suppl 2, S193-206); MacFarlane et al., 2005 ibid).
Apoptosis was quantified by phosphatidylserine (PS) externalization in the presence of propidium iodide as described (MacFarlane et al., 2002 ibid.). Samples for Western blot analysis were prepared and caspase processing detected as described (Inoue et al., 2004 ibid.; MacFarlane et al., 2005 ibid.).
Referring to FIG. 4: Ramos cells (A) and Jurkat cells (B) were cultured with increasing concentrations of Arg191Leu or Asn199Val single mutants of His-TRAIL ([…]) or His-TRAIL (500 ng/ml), ETR1 or ETR2 (1000 ng/ml) for 4 h. Apoptosis was quantified by measuring the % PS+ cells and results shown in FIG. 4 are the Mean±SEM of three independent experiments. Thus the biological importance TRAIL residues R191 and N199 in TRAIL-R1 selectivity is shown.

Experiment [1] concerns TRAIL DISC in Ramos cells. The experiment is described as follows: DISC analysis with biotinylated TRAIL in Ramos cells. The conditions noted are these: biotinylated ligand 500 ng ml^−1, 30 min. In kind it is cell-based. The method, then: After exposure of the cells for 30 min, DISC complexes were isolated and analyzed for the indicated proteins by Western blotting. To provide an unstimulated receptor control (u/s), biotinylated wt or mutant TRAIL was added to lysate from untreated cells. C: Freshly isolated cells from patients with CLL were incubated for 16 h either alone or in the presence of depsipeptide (10 nM). […] The different symbols used indicate data from six individual patients and the solid line indicates the Mean.
Ramos or Jurkat cells (5×10^7 cells per treatment) were exposed to biotin-tagged recombinant His-TRAIL (biotinylated TRAIL) or one of its mutant forms (500 ng ml^−1) for 30 min and then DISC formation assessed as described previously (MacFarlane et al., 2002 ibid.).

B1: TRAIL.R1-5: 6His TRAIL 95-281 with 193Ser, 199Val, 201Arg, 213Trp and 215Asp (protein)
chain: TSEETISTVQEKQQNISPLVRERGPQRVAAHITGTRGRSNTLSSPNSKNEKALGRKINSWESSRSGHSFLSNLHLRNGELVIHEKGFYYIYSQTYFRFSEEIKEVTRNDKQMVQYIYKWTDYPDPILLMKSARNSCWSKDAEYGLYSIYQGGIFELKENDRIFVSVTNEHLIDMDHEASFFGAFLVG
modifications: biotin (site not stated) in the DISC analysis only; not biotinylated in the apoptosis assays
notes: 6His TRAIL 95-281 with 193Ser, 199Val, 201Arg, 213Trp and 215Asp
Turning to B1, the “receptor selectivity of apoptotic activity (in words)” value with TRAIL-R1 (DR4) is “R1 selective apoptotic activity”. Besides, in experiment [1], the “DISC formation: receptor bound, FADD and caspase-8 recruitment” value is reported as “bound predominantly TRAIL-R1 together with a small amount of TRAIL-R2”.
